Source: publication PMC6453127 (Biochimica et biophysica acta. General subjects, 2017)

Target: the molecule itself
Assay: cross-linking

B1: His6-tagged Hsp90β CTD (530–724) (domain or fragment)
chain: not shown
- binding result: binds
